Assay results as given in article PMC10849882 (The Journal of Cell Biology, 2024).

Target: the molecule itself
Test: negative stain EM

Row | Protein | binding result
1 | IMPDH1(514)-S477D (enzyme) not shown | binds
2 | IMPDH1(514)-WT (enzyme) not shown | binds
